# B1: Brn1 (natural protein, S. cerevisiae)
# chain: MTTQLRYENNDDDERVEYNLFTNRSTMMANFEEWIKMATDNKINSRNSWNFALIDYFYDLDVLKDGENNINFQKASATLDGCIKIYSSRVDSVTTETGKLLSGLAQRKTNGASNGDDSNGGNGEGLGGDSDEANIEIDPLTGMPISNDPDVNNTRRRVYNRVLETTLVEFETIKMKELDQELIIDPLFKKALVDFDEGGAKSLLLNTLNIDNTARVIFDASIKDTQNVGQGKLQRKEEELIERDSLVDDENEPSQSLISTRNDSTVNDSVISAPSMEDEILSLGMDFIKFDQIAVCEISGSIEQLRNVVEDINQAKDFIENVNNRFDNFLTEEELQAAVPDNAEDDSDGFDMGMQQELCYPDENHDNTSHDEQDDDNVNSTTGSIFEKDLMAYFDENLNRNWRGREHWKVRNFKKANLVNKESDLLEETRTTIGDTTDKNTTDDKSMDTKKKHKQKKVLEIDFFKTDDSFEDKVFASKGRTKIDMPIKNRKNDTHYLLPDDFHFSTDRITRLFIKPGQKMSLFSHRKHTRGDVSSGLFEKSTVSANHSNNDIPTIADEHFWADNYERKEQEEKEKEQSKEVGDVVGGALDNPFEDDMDGVDFNQAFEGTDDNEEASVKLDLQDDEDHKFPIRENKVTYSRVSKKVDVRRLKKNVWRSINNLIQEHDSRKNREQSSNDSETHTEDESTKELKFSDIIQGISKMYSDDTLKDISTSFCFICLLHLANEHGLQITHTENYNDLIVNYEDLATTQAAS
# notes: Brn1, kleisin subunit of budding yeast (S. cerevisiae) condensin, wild type; also called kleisin Brn1; BRN1-HA3-His12
# Columns and labels:
# [1] = target: T1, Smc4 (S. cerevisiae, UniProt Q12267 1-1418); assay: cryo-EM structure; condensin pentamer (Smc2, Smc4, Brn1, Ycs4, Ycg1) with 80 bp dsDNA, ADP and BeF3; separate maps of the head module and of Ycg1-DNA from one dataset; details: both partners purified
# T1 construct: Smc4, SMC subunit of budding yeast (S. cerevisiae) condensin, wild type; Only the head domain and proximal coiled coil are resolved in the maps; also called SMC4-3xStrepII
# T1 sequence: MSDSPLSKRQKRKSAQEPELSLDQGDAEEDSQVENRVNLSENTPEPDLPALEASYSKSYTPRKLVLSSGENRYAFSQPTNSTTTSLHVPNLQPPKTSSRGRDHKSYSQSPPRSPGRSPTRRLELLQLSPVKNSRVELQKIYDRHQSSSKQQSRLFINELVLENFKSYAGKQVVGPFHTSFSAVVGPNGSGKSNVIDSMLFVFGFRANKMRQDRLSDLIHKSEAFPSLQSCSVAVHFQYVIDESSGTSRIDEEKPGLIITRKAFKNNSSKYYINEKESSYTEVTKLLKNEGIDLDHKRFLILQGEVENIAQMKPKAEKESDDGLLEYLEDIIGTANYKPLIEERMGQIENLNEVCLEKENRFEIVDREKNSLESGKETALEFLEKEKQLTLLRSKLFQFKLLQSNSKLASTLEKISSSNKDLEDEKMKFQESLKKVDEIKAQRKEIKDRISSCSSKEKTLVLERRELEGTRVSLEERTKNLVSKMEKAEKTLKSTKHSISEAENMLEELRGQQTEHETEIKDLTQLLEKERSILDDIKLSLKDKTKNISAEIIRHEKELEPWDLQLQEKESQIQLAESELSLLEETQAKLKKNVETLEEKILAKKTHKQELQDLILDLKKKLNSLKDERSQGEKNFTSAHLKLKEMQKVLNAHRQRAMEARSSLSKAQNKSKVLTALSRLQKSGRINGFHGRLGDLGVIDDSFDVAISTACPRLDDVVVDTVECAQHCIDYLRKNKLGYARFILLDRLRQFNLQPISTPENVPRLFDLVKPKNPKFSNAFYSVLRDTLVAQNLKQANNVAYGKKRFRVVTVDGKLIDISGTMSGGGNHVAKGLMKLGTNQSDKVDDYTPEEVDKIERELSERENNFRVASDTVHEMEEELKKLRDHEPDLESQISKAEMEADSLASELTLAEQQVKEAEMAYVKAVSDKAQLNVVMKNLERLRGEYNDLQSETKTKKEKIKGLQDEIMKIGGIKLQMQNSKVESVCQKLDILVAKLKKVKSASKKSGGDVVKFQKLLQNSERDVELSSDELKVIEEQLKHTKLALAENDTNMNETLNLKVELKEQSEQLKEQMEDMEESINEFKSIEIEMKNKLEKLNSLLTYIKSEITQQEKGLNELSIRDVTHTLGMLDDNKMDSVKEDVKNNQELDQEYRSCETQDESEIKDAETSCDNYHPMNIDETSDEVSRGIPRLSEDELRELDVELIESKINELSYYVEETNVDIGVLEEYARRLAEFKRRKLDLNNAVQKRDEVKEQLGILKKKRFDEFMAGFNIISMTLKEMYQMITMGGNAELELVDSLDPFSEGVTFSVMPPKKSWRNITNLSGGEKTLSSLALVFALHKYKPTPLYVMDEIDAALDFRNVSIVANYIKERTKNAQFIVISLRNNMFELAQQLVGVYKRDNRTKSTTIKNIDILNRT
# [2] = target: T2, Ycg1 (S. cerevisiae, UniProt Q06680 1-1035); assay: as above; details: both partners purified
# T2 construct: Ycg1, HAWK subunit of budding yeast (S. cerevisiae) condensin, wild type
# T2 sequence: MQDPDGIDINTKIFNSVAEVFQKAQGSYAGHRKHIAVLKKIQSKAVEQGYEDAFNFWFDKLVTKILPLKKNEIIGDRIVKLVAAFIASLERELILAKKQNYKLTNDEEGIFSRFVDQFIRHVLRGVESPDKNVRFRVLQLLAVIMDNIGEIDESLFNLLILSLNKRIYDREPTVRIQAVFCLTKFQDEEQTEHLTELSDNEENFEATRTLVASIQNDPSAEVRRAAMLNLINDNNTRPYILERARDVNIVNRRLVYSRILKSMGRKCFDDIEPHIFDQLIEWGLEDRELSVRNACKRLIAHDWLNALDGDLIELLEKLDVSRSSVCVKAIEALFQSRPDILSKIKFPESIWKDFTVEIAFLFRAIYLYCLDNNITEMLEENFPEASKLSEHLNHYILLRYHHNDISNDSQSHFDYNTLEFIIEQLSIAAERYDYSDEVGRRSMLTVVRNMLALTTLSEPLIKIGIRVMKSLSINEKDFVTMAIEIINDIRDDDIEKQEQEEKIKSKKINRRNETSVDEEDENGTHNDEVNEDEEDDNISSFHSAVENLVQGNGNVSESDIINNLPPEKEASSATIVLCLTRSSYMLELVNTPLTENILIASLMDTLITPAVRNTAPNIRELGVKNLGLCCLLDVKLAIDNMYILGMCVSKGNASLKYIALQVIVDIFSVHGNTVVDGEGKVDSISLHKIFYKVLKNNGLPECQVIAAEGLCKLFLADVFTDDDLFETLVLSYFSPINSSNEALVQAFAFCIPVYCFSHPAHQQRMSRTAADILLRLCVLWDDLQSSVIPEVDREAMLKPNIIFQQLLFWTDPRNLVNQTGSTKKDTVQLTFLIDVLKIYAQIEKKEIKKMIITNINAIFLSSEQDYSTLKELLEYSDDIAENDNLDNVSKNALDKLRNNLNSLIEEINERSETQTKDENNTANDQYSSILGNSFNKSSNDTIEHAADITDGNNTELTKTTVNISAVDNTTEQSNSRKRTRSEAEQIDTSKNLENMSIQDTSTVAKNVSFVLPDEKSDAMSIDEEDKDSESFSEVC
binder,measurement,setting,value
B1,binding result,[1],binds
same,binding result,[2],binds

# From publication doi:10.1101/2021.10.29.466484, “Clamping of DNA shuts the condensin neck gate” (bioRxiv, 2021)
